Data reported in US10077319B2, “Anti-PCSK9-GLP-1 fusions and methods for use” (MedImmune, LLC, priority 2014, dated 2018).

Molecular target: human GLP-1 receptor (Homo sapiens, UniProt P43220)
Experiment: cAMP production assay in CHO cells expressing human GLP-1 receptor
Type: cell-based
Details: Table 13; EC50 relative to GLP1-Fc
Experimental: Low protein binding 384-well plates (Greiner) were used to perform eleven 1 in 4 serial dilutions of test compound that were made in assay medium (0.1% bovine serum albumin in Hanks Balanced Salt Solution (GIBCO or Sigma), containing 0.5 mM IBMX (Sigma)). All sample dilutions were made in duplicate. […] Cells were then re-suspended in assay buffer at the optimized concentration of 1×10^5 cells/mL and dispensed at 5 uL per well to black shallow-well u-bottom 384-well plates (Corning). 5 μL of test compound was transferred from the dilution plate to the cell plate and incubated at room temperature for 30 minutes. cAMP levels were measured the cAMP dynamic 2 HTRF kit (Cisbio), following the two step protocol as per manufacturer's recommendations. Briefly, anti-cAMP cryptate (donor fluorophore) and cAMP-d2 (acceptor fluorophore) were made up separately by diluting each 1/20 in conjugate & lysis buffer provided in the kit. 5 uL of anti-cAMP cryptate was added to all wells of the assay plate and 5 uL of cAMP-d2 added to all wells except non-specific binding wells, to which only conjugate and lysis buffer was added. […] Data was transformed to % Delta F as described in manufacturer's guidelines and analyzed by unconstrained 4-parameter logistic fit of data, curve mid-point to determine EC50.

Sequence of human GLP-1 receptor (P43220 24-463): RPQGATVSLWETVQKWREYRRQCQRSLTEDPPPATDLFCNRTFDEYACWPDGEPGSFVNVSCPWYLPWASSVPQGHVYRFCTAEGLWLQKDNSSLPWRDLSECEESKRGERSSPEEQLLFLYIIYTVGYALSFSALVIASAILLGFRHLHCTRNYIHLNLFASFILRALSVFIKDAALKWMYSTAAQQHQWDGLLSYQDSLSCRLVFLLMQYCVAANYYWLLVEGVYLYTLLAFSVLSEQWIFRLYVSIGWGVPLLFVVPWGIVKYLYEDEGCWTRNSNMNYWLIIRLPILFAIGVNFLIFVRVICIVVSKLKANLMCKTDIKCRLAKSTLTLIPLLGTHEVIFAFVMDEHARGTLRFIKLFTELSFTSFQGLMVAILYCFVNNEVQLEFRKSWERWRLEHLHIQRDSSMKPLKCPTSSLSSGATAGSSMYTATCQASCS

Molecule	x change
PC9#2_GLP-1_VL: GLP-1 analogue SEQ ID NO:28 fused via linker SEQ ID NO:4 to light chain of PC9#2 (SEQ ID NO: 43) (protein, heavy chain not cited) HGEGTFTSDVSSYLEEQAAKEFIAWLVKGGGGGGGSGGGGSGGGGSADIQMTQSPSSLSASVGDRVTITCKASQDVHTAVAWYQQKPGKAPKLLIYHASYRYTGVPSRFSGSGSGTDFTFTISSLQPEDIATYYCQQRYSLWRTFGQGTKLEIKR	2.4

Same assay, conditions: Table 18

Molecule	Potency at huGLP-1R in cAMP assay (M)
HS9_DSB7_I23S: HS9_DSB7 with peptide point mutation I23S; SEQ ID NO: 458 (protein) HGEGTFTSDLSKQMEEECVRLFSEWLKNGGPSSGAPPPGCGGGGGSGGGGSGGGGSADIQMTQSPSSLSASVGDRVTITCQASQDVKTAVAWYQQKPGKAPKLLIYSASYRYTGVPSRFSGSGSGTDFTFTISSLQPEDIATYYCQQRYSLWRTFGQGTKLEIK	Inactive
HS9_DSB7_L26S: HS9_DSB7 with peptide point mutation L26S; SEQ ID NO: 462 (protein) HGEGTFTSDLSKQMEEECVRLFIEWSKNGGPSSGAPPPGCGGGGGSGGGGSGGGGSADIQMTQSPSSLSASVGDRVTITCQASQDVKTAVAWYQQKPGKAPKLLIYSASYRYTGVPSRFSGSGSGTDFTFTISSLQPEDIATYYCQQRYSLWRTFGQGTKLEIK	Inactive
HS9_DSB7_I23T: HS9_DSB7 with peptide point mutation I23T; SEQ ID NO: 457 (protein) HGEGTFTSDLSKQMEEECVRLFTEWLKNGGPSSGAPPPGCGGGGGSGGGGSGGGGSADIQMTQSPSSLSASVGDRVTITCQASQDVKTAVAWYQQKPGKAPKLLIYSASYRYTGVPSRFSGSGSGTDFTFTISSLQPEDIATYYCQQRYSLWRTFGQGTKLEIK	Inactive

Same assay, conditions: Table 18; maximum activation compared to GLP-1

Molecule	% Max Effect
HS9_DSB7_G2Y: HS9_DSB7 with peptide point mutation G2Y; SEQ ID NO: 444 (protein) HYEGTFTSDLSKQMEEECVRLFIEWLKNGGPSSGAPPPGCGGGGGSGGGGSGGGGSADIQMTQSPSSLSASVGDRVTITCQASQDVKTAVAWYQQKPGKAPKLLIYSASYRYTGVPSRFSGSGSGTDFTFTISSLQPEDIATYYCQQRYSLWRTFGQGTKLEIK	10%
HS9_DSB7_L26N: HS9_DSB7 with peptide point mutation L26N; SEQ ID NO: 464 (protein) HGEGTFTSDLSKQMEEECVRLFIEWNKNGGPSSGAPPPGCGGGGGSGGGGSGGGGSADIQMTQSPSSLSASVGDRVTITCQASQDVKTAVAWYQQKPGKAPKLLIYSASYRYTGVPSRFSGSGSGTDFTFTISSLQPEDIATYYCQQRYSLWRTFGQGTKLEIK	44%
HS9_DSB7_L26Q: HS9_DSB7 with peptide point mutation L26Q; SEQ ID NO: 465 (protein) HGEGTFTSDLSKQMEEECVRLFIEWQKNGGPSSGAPPPGCGGGGGSGGGGSGGGGSADIQMTQSPSSLSASVGDRVTITCQASQDVKTAVAWYQQKPGKAPKLLIYSASYRYTGVPSRFSGSGSGTDFTFTISSLQPEDIATYYCQQRYSLWRTFGQGTKLEIK	34%
HS9_DSB7_I23G: HS9_DSB7 with peptide point mutation I23G; SEQ ID NO: 459 (protein) HGEGTFTSDLSKQMEEECVRLFGEWLKNGGPSSGAPPPGCGGGGGSGGGGSGGGGSADIQMTQSPSSLSASVGDRVTITCQASQDVKTAVAWYQQKPGKAPKLLIYSASYRYTGVPSRFSGSGSGTDFTFTISSLQPEDIATYYCQQRYSLWRTFGQGTKLEIK	82%
HS9_DSB7_G2T: HS9_DSB7 with peptide point mutation G2T; SEQ ID NO: 446 (protein) HTEGTFTSDLSKQMEEECVRLFIEWLKNGGPSSGAPPPGCGGGGGSGGGGSGGGGSADIQMTQSPSSLSASVGDRVTITCQASQDVKTAVAWYQQKPGKAPKLLIYSASYRYTGVPSRFSGSGSGTDFTFTISSLQPEDIATYYCQQRYSLWRTFGQGTKLEIK	73%
HS9_DSB7_I23S: HS9_DSB7 with peptide point mutation I23S; SEQ ID NO: 458 (protein) HGEGTFTSDLSKQMEEECVRLFSEWLKNGGPSSGAPPPGCGGGGGSGGGGSGGGGSADIQMTQSPSSLSASVGDRVTITCQASQDVKTAVAWYQQKPGKAPKLLIYSASYRYTGVPSRFSGSGSGTDFTFTISSLQPEDIATYYCQQRYSLWRTFGQGTKLEIK	Inactive
HS9_DSB7_L26T: HS9_DSB7 with peptide point mutation L26T; SEQ ID NO: 461 (protein) HGEGTFTSDLSKQMEEECVRLFIEWTKNGGPSSGAPPPGCGGGGGSGGGGSGGGGSADIQMTQSPSSLSASVGDRVTITCQASQDVKTAVAWYQQKPGKAPKLLIYSASYRYTGVPSRFSGSGSGTDFTFTISSLQPEDIATYYCQQRYSLWRTFGQGTKLEIK	87%
HS9_DSB7_V19T: HS9_DSB7 with peptide point mutation V19T; SEQ ID NO: 453 (protein) HGEGTFTSDLSKQMEEECTRLFIEWLKNGGPSSGAPPPGCGGGGGSGGGGSGGGGSADIQMTQSPSSLSASVGDRVTITCQASQDVKTAVAWYQQKPGKAPKLLIYSASYRYTGVPSRFSGSGSGTDFTFTISSLQPEDIATYYCQQRYSLWRTFGQGTKLEIK	95%
HS9_DSB7_L26S: HS9_DSB7 with peptide point mutation L26S; SEQ ID NO: 462 (protein) HGEGTFTSDLSKQMEEECVRLFIEWSKNGGPSSGAPPPGCGGGGGSGGGGSGGGGSADIQMTQSPSSLSASVGDRVTITCQASQDVKTAVAWYQQKPGKAPKLLIYSASYRYTGVPSRFSGSGSGTDFTFTISSLQPEDIATYYCQQRYSLWRTFGQGTKLEIK	Inactive
HS9_DSB7_L26P: HS9_DSB7 with peptide point mutation L26P; SEQ ID NO: 463 (protein) HGEGTFTSDLSKQMEEECVRLFIEWPKNGGPSSGAPPPGCGGGGGSGGGGSGGGGSADIQMTQSPSSLSASVGDRVTITCQASQDVKTAVAWYQQKPGKAPKLLIYSASYRYTGVPSRFSGSGSGTDFTFTISSLQPEDIATYYCQQRYSLWRTFGQGTKLEIK	60%
HS9_DSB7_G2F: HS9_DSB7 with peptide point mutation G2F; SEQ ID NO: 450 (protein) HFEGTFTSDLSKQMEEECVRLFIEWLKNGGPSSGAPPPGCGGGGGSGGGGSGGGGSADIQMTQSPSSLSASVGDRVTITCQASQDVKTAVAWYQQKPGKAPKLLIYSASYRYTGVPSRFSGSGSGTDFTFTISSLQPEDIATYYCQQRYSLWRTFGQGTKLEIK	69%
HS9_DSB7_L26H: HS9_DSB7 with peptide point mutation L26H; SEQ ID NO: 468 (protein) HGEGTFTSDLSKQMEEECVRLFIEWHKNGGPSSGAPPPGCGGGGGSGGGGSGGGGSADIQMTQSPSSLSASVGDRVTITCQASQDVKTAVAWYQQKPGKAPKLLIYSASYRYTGVPSRFSGSGSGTDFTFTISSLQPEDIATYYCQQRYSLWRTFGQGTKLEIK	87%
HS9_DSB7_V19S: HS9_DSB7 with peptide point mutation V19S; SEQ ID NO: 454 (protein) HGEGTFTSDLSKQMEEECSRLFIEWLKNGGPSSGAPPPGCGGGGGSGGGGSGGGGSADIQMTQSPSSLSASVGDRVTITCQASQDVKTAVAWYQQKPGKAPKLLIYSASYRYTGVPSRFSGSGSGTDFTFTISSLQPEDIATYYCQQRYSLWRTFGQGTKLEIK	94%
HS9_DSB7_V19G: HS9_DSB7 with peptide point mutation V19G; SEQ ID NO: 455 (protein) HGEGTFTSDLSKQMEEECGRLFIEWLKNGGPSSGAPPPGCGGGGGSGGGGSGGGGSADIQMTQSPSSLSASVGDRVTITCQASQDVKTAVAWYQQKPGKAPKLLIYSASYRYTGVPSRFSGSGSGTDFTFTISSLQPEDIATYYCQQRYSLWRTFGQGTKLEIK	93%
HS9_DSB7_G2N: HS9_DSB7 with peptide point mutation G2N; SEQ ID NO: 448 (protein) HNEGTFTSDLSKQMEEECVRLFIEWLKNGGPSSGAPPPGCGGGGGSGGGGSGGGGSADIQMTQSPSSLSASVGDRVTITCQASQDVKTAVAWYQQKPGKAPKLLIYSASYRYTGVPSRFSGSGSGTDFTFTISSLQPEDIATYYCQQRYSLWRTFGQGTKLEIK	31%
HS9_DSB7_I23T: HS9_DSB7 with peptide point mutation I23T; SEQ ID NO: 457 (protein) HGEGTFTSDLSKQMEEECVRLFTEWLKNGGPSSGAPPPGCGGGGGSGGGGSGGGGSADIQMTQSPSSLSASVGDRVTITCQASQDVKTAVAWYQQKPGKAPKLLIYSASYRYTGVPSRFSGSGSGTDFTFTISSLQPEDIATYYCQQRYSLWRTFGQGTKLEIK	Inactive
HS9_DSB7_I23A: HS9_DSB7 with peptide point mutation I23A; SEQ ID NO: 460 (protein) HGEGTFTSDLSKQMEEECVRLFAEWLKNGGPSSGAPPPGCGGGGGSGGGGSGGGGSADIQMTQSPSSLSASVGDRVTITCQASQDVKTAVAWYQQKPGKAPKLLIYSASYRYTGVPSRFSGSGSGTDFTFTISSLQPEDIATYYCQQRYSLWRTFGQGTKLEIK	67%
HS9_DSB7_G2Q: HS9_DSB7 with peptide point mutation G2Q; SEQ ID NO: 447 (protein) HQEGTFTSDLSKQMEEECVRLFIEWLKNGGPSSGAPPPGCGGGGGSGGGGSGGGGSADIQMTQSPSSLSASVGDRVTITCQASQDVKTAVAWYQQKPGKAPKLLIYSASYRYTGVPSRFSGSGSGTDFTFTISSLQPEDIATYYCQQRYSLWRTFGQGTKLEIK	86%
HS9_DSB7_G2I: HS9_DSB7 with peptide point mutation G2I; SEQ ID NO: 449 (protein) HIEGTFTSDLSKQMEEECVRLFIEWLKNGGPSSGAPPPGCGGGGGSGGGGSGGGGSADIQMTQSPSSLSASVGDRVTITCQASQDVKTAVAWYQQKPGKAPKLLIYSASYRYTGVPSRFSGSGSGTDFTFTISSLQPEDIATYYCQQRYSLWRTFGQGTKLEIK	87%
HS9_DSB7_L26M: HS9_DSB7 with peptide point mutation L26M; SEQ ID NO: 466 (protein) HGEGTFTSDLSKQMEEECVRLFIEWMKNGGPSSGAPPPGCGGGGGSGGGGSGGGGSADIQMTQSPSSLSASVGDRVTITCQASQDVKTAVAWYQQKPGKAPKLLIYSASYRYTGVPSRFSGSGSGTDFTFTISSLQPEDIATYYCQQRYSLWRTFGQGTKLEIK	90%
